From patent US20240301041A1 (Regeneron, published 2024)

Key:
[1] = biological target: T1, Protein A on the surface of S. aureus Newman wild-type (Staphylococcus aureus (strain Newman), UniProt P38507 37-477); assay: ELISA on plate-coated S. aureus Newman WT
T1 construct: whole, on cells; also called S. aureus Newman WT; wild-type S. aureus expressing Protein A

[2] = biological target: T1, Protein A on the surface of S. aureus …; assay: ELISA, coated S. aureus Newman, antibody 1.18E-12 M
[3] = biological target: T1, Protein A on the surface of S. aureus …; assay: ELISA, coated S. aureus Newman, antibody 3.09E-07 M
[4] = biological target: T1, Protein A on the surface of S. aureus …; assay: ELISA, coated S. aureus Newman, antibody 4.82E-09 M
[5] = biological target: T1, Protein A on the surface of S. aureus …; assay: ELISA, coated S. aureus Newman, antibody 6.03E-10 M
[6] = biological target: T1, Protein A on the surface of S. aureus …; assay: ELISA, coated S. aureus Newman, antibody 9.42E-12 M
[7] = biological target: T2, IgG binding protein (Protein A homolog SpsQ/SpsP) on S. intermedius 27369 (Staphylococcus intermedius); assay: ELISA, coated S. intermedius 27369, antibody 1.18E-12 M
T2 construct: whole, on cells; also called Staphylococcus intermedius 27369

[8] = biological target: T2, IgG binding protein (Protein A homolog …); assay: ELISA, coated S. intermedius 27369, antibody 3.86E-08 M
[9] = biological target: T2, IgG binding protein (Protein A homolog …); assay: ELISA, coated S. intermedius 27369, antibody 4.82E-09 M
[10] = biological target: T2, IgG binding protein (Protein A homolog …); assay: ELISA, coated S. intermedius 27369, antibody 6.03E-10 M
[11] = biological target: T1, Protein A on the surface of S. aureus …; assay: ELISA on plate-coated S. aureus Newman WT (grown in TSB)
[12] = biological target: T3, IgG binding protein (Protein A homolog SpsQ/SpsP) on MRSP S. pseudintermedius 88493 (Staphylococcus pseudintermedius); assay: ELISA, coated S. pseudintermedius 88493, antibody 1.47E-13 M
T3 construct: whole, on cells; also called MRSP Staphylococcus pseudintermedius 88493 (methicillin-resistant)

[13] = biological target: T3, IgG binding protein (Protein A homolog …); assay: ELISA, coated S. pseudintermedius 88493, antibody 4.82E-09 M
[14] = biological target: T3, IgG binding protein (Protein A homolog …); assay: ELISA, coated S. pseudintermedius 88493, antibody 6.03E-10 M
[15] = biological target: T3, IgG binding protein (Protein A homolog …); assay: ELISA, coated S. pseudintermedius 88493, antibody 9.42E-12 M
[16] = biological target: T4, IgG binding protein (Protein A homolog SpsQ/SpsP) on S. pseudintermedius AHDRCC 98200 (Staphylococcus pseudintermedius); assay: ELISA, coated S. pseudintermedius 98200, antibody 1.18E-12 M
T4 construct: whole, on cells; also called S. pseudintermedius 98200; Staphylococcus pseudintermedius AHDRCC 98200

[17] = biological target: T4, IgG binding protein (Protein A homolog …); assay: ELISA, coated S. pseudintermedius 98200, antibody 1.47E-13 M
[18] = biological target: T4, IgG binding protein (Protein A homolog …); assay: ELISA, coated S. pseudintermedius 98200, antibody 3.09E-07 M
[19] = biological target: T4, IgG binding protein (Protein A homolog …); assay: ELISA, coated S. pseudintermedius 98200, antibody 3.86E-08 M
[20] = biological target: T4, IgG binding protein (Protein A homolog …); assay: ELISA, coated S. pseudintermedius 98200, antibody 6.03E-10 M
[21] = biological target: T4, IgG binding protein (Protein A homolog …); assay: ELISA, coated S. pseudintermedius 98200, antibody 9.42E-12 M
[22] = biological target: T5, Protein A (purified reagent) (Staphylococcus aureus, UniProt P38507 37-477); assay: SPR (Biacore), mAb captured by anti-human Fc, Protein A injected, 25 C
T5 construct: also called Protein A (Calbiochem, 539202-5 MG); Protein A reagent

[23] = biological target: T5, Protein A (purified reagent); assay: SPR (Biacore), mAb captured by anti-human Fc, Protein A injected, 37 C
[24] = biological target: T1, Protein A on the surface of S. aureus …; assay: flow cytometry; blocking antibody 10 ug/mL, then Alexa-488 Fc fragment (competitor) on wild-type S. aureus

B1: H1xH15140P*/* (anti-Protein A) (antibody, V domains shown)
VH: EVQLVESGGGLVQPGGSLTLSCTASGFSFSSYVMSWVRQSPGKGLEWVSAIGGSGTSTYYRDSVKGRFTISRDNSKNTLNLQMSSLRAEDTAVYYCARDGLGHRDYWGQGTLVTVSS
VL: DIQMTQSPSSVSASVGDRVTITCRASQGINSWLAWYQQKPGKAPKLLIYAASSLQSGVPSRFSGSGSGTDFTLTISSLQPEDFATYYCQQANSFPFTFGPGTKVDIK
notes: also called anti-Protein A hIgG1*/*; H1xH15140P*/*-L1
For B1, the EC50 [1] was 0.0154 nM, the ELISA luminescent signal [2] was 28400 and the ELISA luminescent signal [3] was 979000. It also gave an ELISA luminescent signal [4] of 828000, an ELISA luminescent signal [5] of 647000 and an ELISA luminescent signal [6] of 60500. For the same binder, the ELISA luminescent signal [7] was 2460, the ELISA luminescent signal [8] was 8310 and the ELISA luminescent signal [9] was 3030. The ELISA luminescent signal [10] was 3340, the EC50 [11] was 0.0906 nM and the ELISA luminescent signal [12] was 3470. It also gave an ELISA luminescent signal [13] of 5970, an ELISA luminescent signal [14] of 10000 and an ELISA luminescent signal [15] of 4270. The ELISA luminescent signal [16] was 5020, the ELISA luminescent signal [17] was 3940 and the ELISA luminescent signal [18] was 20600. The ELISA luminescent signal [19] was 6680, the ELISA luminescent signal [20] was 4890 and the ELISA luminescent signal [21] was 2480. The Kd [22] was 0.204 nM, the koff [22] was 7.78e-05 s⁻¹ and the kon [22] was 381000 M⁻¹ s⁻¹. For the same binder, the t½ [22] was 2.48 h, the Kd [23] was 0.0986 nM and the koff [23] was 0.000117 s⁻¹. For the same binder, the kon [23] was 1.19e+06 M⁻¹ s⁻¹, the t½ [23] was 1.65 h and the “Fc: S. aureus blocking activity (%)” value [24] was 97%.
